# Test results as given in article PMC7367873, “Dissecting the sequence determinants for dephosphorylation by the catalytic subunits of phosphatases PP1 and PP2A” (Nature Communications, 2020).
# B1: DARS (protein, UniProt P14868 1-501, looked up)
# Aspartate--tRNA ligase, …: MPSASASRKSQEKPREIMDAAEDYAKERYGISSMIQSQEKPDRVLVRVRDLTIQKADEVVWVRARVHTSRAKGKQCFLVLRQQQFNVQALVAVGDHASKQMVKFAANINKESIVDVEGVVRKVNQKIGSCTQQDVELHVQKIYVISLAEPRLPLQLDDAVRPEAEGEEEGRATVNQDTRLDNRVIDLRTSTSQAVFRLQSGICHLFRETLINKGFVEIQTPKIISAASEGGANVFTVSYFKNNAYLAQSPQLYKQMCICADFEKVFSIGPVFRAEDSNTHRHLTEFVGLDIEMAFNYHYHEVMEEIADTMVQIFKGLQERFQTEIQTVNKQFPCEPFKFLEPTLRLEYCEALAMLREAGVEMGDEDDLSTPNEKLLGHLVKEKYDTDFYILDKYPLAVRPFYTMPDPRNPKQSNSYDMFMRGEEILSGAQRIHDPQLLTERALHHGIDLEKIKAYIDSFRFGAPPHAGGGIGLERVTMLFLGLHNVRQTSMFPRDPKRLTP
# B2: ABCD3 (protein, UniProt P28288 1-659, looked up)
# ATP-binding cassette …: MAAFSKYLTARNSSLAGAAFLLLCLLHKRRRALGLHGKKSGKPPLQNNEKEGKKERAVVDKVFFSRLIQILKIMVPRTFCKETGYLVLIAVMLVSRTYCDVWMIQNGTLIESGIIGRSRKDFKRYLLNFIAAMPLISLVNNFLKYGLNELKLCFRVRLTKYLYEEYLQAFTYYKMGNLDNRIANPDQLLTQDVEKFCNSVVDLYSNLSKPFLDIVLYIFKLTSAIGAQGPASMMAYLVVSGLFLTRLRRPIGKMTITEQKYEGEYRYVNSRLITNSEEIAFYNGNKREKQTVHSVFRKLVEHLHNFILFRFSMGFIDSIIAKYLATVVGYLVVSRPFLDLSHPRHLKSTHSELLEDYYQSGRMLLRMSQALGRIVLAGREMTRLAGFTARITELMQVLKDLNHGKYERTMVSQQEKGIEGVQVIPLIPGAGEIIIADNIIKFDHVPLATPNGDVLIRDLNFEVRSGANVLICGPNGCGKSSLFRVLGELWPLFGGRLTKPERGKLFYVPQRPYMTLGTLRDQVIYPDGREDQKRKGISDLVLKEYLDNVQLGHILEREGGWDSVQDWMDVLSGGEKQRMAMARLFYHKPQFAILDECTSAVSVDVEGYIYSHCRKVGITLFTVSHRKSLWKHHEYYLHMDGRGNYEFKQITEDTVEFGS
# B3: CGN (protein, UniProt Q9P2M7 1-1203, looked up)
# Cingulin: MEQAPNMAEPRGPVDHGVQIRFITEPVSGAEMGTLRRGGRRPAKDARASTYGVAVRVQGIAGQPFVVLNSGEKGGDSFGVQIKGANDQGASGALSSDLELPENPYSQVKGFPAPSQSSTSDEEPGAYWNGKLLRSHSQASLAGPGPVDPSNRSNSMLELAPKVASPGSTIDTAPLSSVDSLINKFDSQLGGQARGRTGRRTRMLPPEQRKRSKSLDSRLPRDTFEERERQSTNHWTSSTKYDNHVGTSKQPAQSQNLSPLSGFSRSRQTQDWVLQSFEEPRRSAQDPTMLQFKSTPDLLRDQQEAAPPGSVDHMKATIYGILREGSSESETSVRRKVSLVLEKMQPLVMVSSGSTKAVAGQGELTRKVEELQRKLDEEVKKRQKLEPSQVGLERQLEEKTEECSRLQELLERRKGEAQQSNKELQNMKRLLDQGEDLRHGLETQVMELQNKLKHVQGPEPAKEVLLKDLLETRELLEEVLEGKQRVEEQLRLRERELTALKGALKEEVASRDQEVEHVRQQYQRDTEQLRRSMQDATQDHAVLEAERQKMSALVRGLQRELEETSEETGHWQSMFQKNKEDLRATKQELLQLRMEKEEMEEELGEKIEVLQRELEQARASAGDTRQVEVLKKELLRTQEELKELQAERQSQEVAGRHRDRELEKQLAVLRVEADRGRELEEQNLQLQKTLQQLRQDCEEASKAKMVAEAEATVLGQRRAAVETTLRETQEENDEFRRRILGLEQQLKETRGLVDGGEAVEARLRDKLQRLEAEKQQLEEALNASQEEEGSLAAAKRALEARLEEAQRGLARLGQEQQTLNRALEEEGKQREVLRRGKAELEEQKRLLDRTVDRLNKELEKIGEDSKQALQQLQAQLEDYKEKARREVADAQRQAKDWASEAEKTSGGLSRLQDEIQRLRQALQASQAERDTARLDKELLAQRLQGLEQEAENKKRSQDDRARQLKGLEEKVSRLETELDEEKNTVELLTDRVNRGRDQVDQLRTELMQERSARQDLECDKISLERQNKDLKTRLASSEGFQKPSASLSQLESQNQLLQERLQAEEREKTVLQSTNRKLERKVKELSIQIEDERQHVNDQKDQLSLRVKALKRQVDEAEEEIERLDGLRKKAQREVEEQHEVNEQLQARIKSLEKDSWRKASRSAAESALKNEGLSSDEEFDSVYDPSSIASLLTESNLQTSSC
# B4: TMEM43 (protein, UniProt Q9BTV4 2-400, looked up)
# Transmembrane protein 43: AANYSSTSTRREHVKVKTSSQPGFLERLSETSGGMFVGLMAFLLSFYLIFTNEGRALKTATSLAEGLSLVVSPDSIHSVAPENEGRLVHIIGALRTSKLLSDPNYGVHLPAVKLRRHVEMYQWVETEESREYTEDGQVKKETRYSYNTEWRSEIINSKNFDREIGHKNPSAMAVESFMATAPFVQIGRFFLSSGLIDKVDNFKSLSLSKLEDPHVDIIRRGDFFYHSENPKYPEVGDLRVSFSYAGLSGDDPDLGPAHVVTVIARQRGDQLVPFSTKSGDTLLLLHHGDFSAEEVFHRELRSNSMKTWGLRAAGWMAMFMGLNLMTRILYTLVDWFPVFRDLVNIGLKAFAFCVATSLTLLTVAAGWLFYRPLWALLIAGLALVPILVARTRVPAKKLE
# B5: LGALS3BP (protein, UniProt Q08380 19-585, looked up)
# Galectin-3-binding protein: VNDGDMRLADGGATNQGRVEIFYRGQWGTVCDNLWDLTDASVVCRALGFENATQALGRAAFGQGSGPIMLDEVQCTGTEASLADCKSLGWLKSNCRHERDAGVVCTNETRSTHTLDLSRELSEALGQIFDSQRGCDLSISVNVQGEDALGFCGHTVILTANLEAQALWKEPGSNVTMSVDAECVPMVRDLLRYFYSRRIDITLSSVKCFHKLASAYGARQLQGYCASLFAILLPQDPSFQMPLDLYAYAVATGDALLEKLCLQFLAWNFEALTQAEAWPSVPTDLLQLLLPRSDLAVPSELALLKAVDTWSWGERASHEEVEGLVEKIRFPMMLPEELFELQFNLSLYWSHEALFQKKTLQALEFHTVPFQLLARYKGLNLTEDTYKPRIYTSPTWSAFVTDSSWSARKSQLVYQSRRGPLVKYSSDYFQAPSDYRYYPYQSFQTPQHPSFLFQDKRVSWSLVYLPTIQSCWNYGFSCSSDELPVLGLTKSGGSDRTIAYENKALMLCEGLFVADVTDFEGWKAAIPSALDTNSSKSTSSFPCPAGHFNGFRTVIRPFYLTNSSGVD
# B6: BANF1 (protein, UniProt O75531 1-89, looked up)
# Barrier-to-autointegration …: MTTSQKHRDFVAEPMGEKPVGSLAGIGEVLGKKLEERGFDKAYVVLGQFLVLKKDEDLFREWLKDTCGANAKQSRDCFGCLREWCDAFL
# B7: RTCB (protein, UniProt Q9Y3I0 1-505, looked up)
# RNA-splicing ligase RtcB …: MSRSYNDELQFLEKINKNCWRIKKGFVPNMQVEGVFYVNDALEKLMFEELRNACRGGGVGGFLPAMKQIGNVAALPGIVHRSIGLPDVHSGYGFAIGNMAAFDMNDPEAVVSPGGVGFDINCGVRLLRTNLDESDVQPVKEQLAQAMFDHIPVGVGSKGVIPMNAKDLEEALEMGVDWSLREGYAWAEDKEHCEEYGRMLQADPNKVSARAKKRGLPQLGTLGAGNHYAEIQVVDEIFNEYAAKKMGIDHKGQVCVMIHSGSRGLGHQVATDALVAMEKAMKRDKIIVNDRQLACARIASPEGQDYLKGMAAAGNYAWVNRSSMTFLTRQAFAKVFNTTPDDLDLHVIYDVSHNIAKVEQHVVDGKERTLLVHRKGSTRAFPPHHPLIAVDYQLTGQPVLIGGTMGTCSYVLTGTEQGMTETFGTTCHGAGRALSRAKSRRNLDFQDVLDKLADMGIAIRVASPKLVMEEAPESYKNVTDVVNTCHDAGISKKAIKLRPIAVIKG
# Test system: GFP-14-3-3β and its binding proteins
# Assay: GFP-14-3-3β co-IP with LC-MS/MS label-free quantification, untreated versus PP1c-treated
# Parameters: species or system human
# Conditions: PP1 vs untreated; label-free quantification
# Description: (§1) HeLa Kyoto cells expressing transiently transfected pEGFP(C1)-14-3-3β or pEGFP(C1) control plasmid, were incubated with 20 nM Calyculin A (# 9902 S, Cell Signaling Technology) for 12 min. Cells were washed twice on ice with cold PBS and after addition of 500 µL lysis buffer (100 mM NaCl, 10 mM Tris, 0.1% IGEPAL, 1 mM EDTA, 1 mM EGTA, 20 nM Calyculin A, 1x cOmplete Mini protease inhibitor cocktail (Sigma), 1 mM DTT, 1 mM MnCl2) cells were scraped from plates, lysed by 10 pushes through an injection needle (21 G, BD) and the insoluble fraction was pelleted by centrifugation (10 min, 10^4 rcf, 4 °C). Supernatants were then subjected to incubation with 1 µM recombinant phosphatase or buffer for 1 h at 30 °C. Next, we subjected samples to immunoprecipitation using α-GFP nanobodies covalently coupled to agarose beads (2 h, 4 °C, obtained from the EMBL PEPcore Core Facility). Beads were then washed three times with lysis buffer and samples were eluted in 1x LDS sample buffer (Thermo Fisher Scientific) by heating to 70 °C for 10 min.
# (§2) The samples were then reduced with 25 mM dithiothreitol (10 min at 70 °C) and alkylated with 55 mM chloroacetamide (room temperature, 30 min, in the dark). Proteins were run on a precast 4–12% NuPAGE gel (ThermoFisher Scientific) for about 1 cm to concentrate the sample prior to in-gel tryptic digestion, which was performed according to the standard procedures. The peptides obtained were dried to completeness and resuspended in 12 µL of buffer A (0.1% FA), and 5 µL of sample were injected per MS measurement. The experiment was carried out in three independent replicates.
# (§3) The samples were analyzed by LC-MS/MS on a Dionex Ultimate 3000 nano-HPLC coupled online to a Fusion Lumos Tribrid mass spectrometer (Thermo Fisher Scientific). Peptides were delivered to a trap column (75 µm × 2 cm, packed in-house with 5 µm C18 resin; Reprosil PUR AQ, Dr. Maisch) and washed using 0.1% FA at a flow rate of 5 µL/min for 10 min. Subsequently, peptides were transferred to an analytical column (75 µm × 45 cm, packed in-house with 3 µm C18 resin; Reprosil Gold) applying a flow rate of 300 nL/min and separated using a 60 min linear gradient from 4% to 32% LC solvent B (0.1% FA, 5% DMSO in ACN) in LC solvent A (0.1% FA in 5% DMSO). The eluate from the analytical column was sprayed via a stainless steel emitter (Thermo Fisher Scientific) at a source voltage of 2.1 kV into the mass spectrometer. The transfer capillary was heated to 275 °C. The Fusion Lumos was operated in positive ionization mode and data-dependent acquisition (DDA), automatically switching between MS1 and MS2 spectrum acquisition. Full scan MS1 spectra were recorded in the Orbitrap from 360 to 1300 m/z at a resolution of 60k (automatic gain control (AGC) target value of 4e5 charges, maximum injection time (maxIT) of 50 ms). Up to 20 peptide precursors were isolated (isolation window, 1.7 m/z; maximum injection time, 25 ms; and AGC value, 1e5), fragmented by high-energy collision-induced dissociation (HCD) using 30% normalized collision energy (NCE), and analyzed at a resolution of 15k in the Orbitrap. Precursor ions that were singly charged, unassigned, or with charge states >6+ were excluded. The dynamic exclusion duration of fragmented precursor ions was 20 s.
# (§4) Peptide and protein identification and LFQ were performed using MaxQuant software (version 1.6.1.0)[64] by searching the data against all canonical protein sequences as annotated in the Swissprot reference database (human proteins only, 20193 entries, downloaded 22 March 2016, internally annotated with PFAM domains) using the embedded search engine Andromeda[65]. The MaxQuant search was performed using two variable modifications; oxidation of methionine and N-terminal protein acetylation. Carbamidomethylation on cysteines was specified as a fixed modification. Trypsin (Trypsin/P) was specified as the proteolytic enzyme with up to two allowed missed cleavage sites.
row,Molecule,"Difference (log2), PP1 vs untreated [log2]"
1,B1,1.065
2,B2,1.116
3,B3,1.065
4,B4,1.071
5,B5,1.074
6,B6,1.068
7,B7,1.104

# Test system: GFP-14-3-3β
# Assay: GFP-14-3-3β co-IP with LC-MS/MS, untreated GFP-14-3-3β versus GFP control (14-3-3 interactome)
# Type: binding, human
# Conditions: untreated vs GFP; label-free quantification
# Description: as §1, §2, §3, §4
row,Molecule,"Difference (log2), untreated vs GFP [log2]"
1,B1,-1.63
2,B2,-0.7267
3,B3,1.896
4,B4,-0.2983
5,B5,-0.5352
6,B6,-2.499
7,B7,-0.6754
